Experimental data as given in paper PMC5027585, “TSPO ligands stimulate ZnPPIX transport and ROS accumulation leading to the inhibition of P. falciparum growth in human blood” (Scientific Reports, 2016).
“And” between values parts separate entries of the source, which are not always exact repeats. Equal values may be shown once.

Biological target: the molecule itself
Assay: SDS-PAGE and immunoblot (SDS-resistant forms); ghosts of healthy and infected RBCs in 5P8 buffer, solubilised in 1% Triton X-100, denaturing SDS-PAGE, immunoblot; oligomeric state read from the size of the bands

B1: TranSlocator PrOtein 2 (TSPO2) (natural protein, human (endogenous in red blood cells), UniProt Q5TGU0 1-170, looked up)
chain: MRLQGAIFVLLPHLGPILVWLFTRDHMSGWCEGPRMLSWCPFYKVLLLVQTAIYSVVGYASYLVWKDLGGGLGWPLALPLGLYAVQLTISWTVLVLFFTVHNPGLALLHLLLLYGLVVSTALIWHPINKLAALLLLPYLAWLTVTSALTYHLWRDSLCPVHQPQPTEKSD
notes: TSPO2, human, second TSPO isoform, endogenous in mature red blood cells; detected with a rabbit antibody against the 13 C-terminal residues of hTSPO2; also called hTSPO2; source: endogenous, human red blood cell membranes (ghosts) or Triton X-100 lysate of healthy and P. falciparum-infected RBCs
stoichiometry N: 4 and 2
